Assay results as given in patent US20240294651A1 (KYMAB, published 2024).

Experiments:
CXCR4 StaR nanodiscs [1] = molecular target: T1, CXCR4 StaR nanodiscs; assay: SPR (Biacore T200), IgG4-PE antibody captured by anti-IgG on CM5, CXCR4 StaR nanodiscs at 250 nM as analyte, 25 C, 1:1 model; N = 1
T1 construct: Purified receptor in lipid-protein nanodiscs; also called StaR CXCR4; thermostabilised CXCR4
Procedure: (§1) Anti-IgG antibodies were immobilised on chip CM5 (GE Healthcare) by amine coupling. […] A channel with no anti-CXCR4 antibodies captured was used as a reference. […] The blank-subtracted sensorgrams were fitted to the 1:1 interaction model using the Biacore T200 evaluation software. The assay was run at 25° C. using 0.01 M HEPES pH 7.4, 0.15 M NaCl as running buffer.

[2] = molecular target: T2, human CXCR4 (cell-expressed) (human, UniProt P61073 1-352); assay: cell-based or functional assay
T2 sequence (P61073 whole entry): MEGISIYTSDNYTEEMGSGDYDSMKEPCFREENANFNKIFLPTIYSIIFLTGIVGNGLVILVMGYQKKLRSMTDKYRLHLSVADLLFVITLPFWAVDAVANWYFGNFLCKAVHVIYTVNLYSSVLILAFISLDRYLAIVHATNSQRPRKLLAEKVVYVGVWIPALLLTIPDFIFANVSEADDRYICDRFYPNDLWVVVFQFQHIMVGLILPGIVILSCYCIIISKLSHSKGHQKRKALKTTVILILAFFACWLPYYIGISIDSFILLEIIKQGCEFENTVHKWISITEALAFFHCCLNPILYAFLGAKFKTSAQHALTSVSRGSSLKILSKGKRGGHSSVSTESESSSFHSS

CXCR4 StaR nanodiscs [3] = molecular target: T1, CXCR4 StaR nanodiscs; assay: SPR (Biacore T200), IgG4-PE antibody captured by anti-IgG on CM5, CXCR4 StaR nanodiscs at 250 nM as analyte, 25 C, 1:1 model; N = 2
Procedure: as §1

[4] = molecular target: T2, human CXCR4 (cell-expressed); assay: cell-based or functional assay; remark: listed apart in the source
[5] = molecular target: T2, human CXCR4 (cell-expressed); assay: cell-based or functional assay; remark: listed apart in the source
cynomolgus CXCR4 [6] = molecular target: T3, cynomolgus CXCR4 (cynomolgus monkey, UniProt Q28474 1-352); assay: cell-based or functional assay
T3 sequence (Q28474 whole entry): as the sequence (P61073 whole entry) above, with M24I, N35H, K38R, R146K, N176S counted along it

[7] = molecular target: T2, human CXCR4 (cell-expressed); assay: cell-based or functional assay; remark: listed apart in the source
human CXCR7 [8] = molecular target: T4, human CXCR7 (human, UniProt P25106 1-362); assay: flow cytometry on CHO-S cells expressing human CXCR7, Alexa Fluor 647 secondary antibody, GeoMean (647 nm)
T4 construct: Expressed on CHO-S cells
T4 sequence (P25106 whole entry): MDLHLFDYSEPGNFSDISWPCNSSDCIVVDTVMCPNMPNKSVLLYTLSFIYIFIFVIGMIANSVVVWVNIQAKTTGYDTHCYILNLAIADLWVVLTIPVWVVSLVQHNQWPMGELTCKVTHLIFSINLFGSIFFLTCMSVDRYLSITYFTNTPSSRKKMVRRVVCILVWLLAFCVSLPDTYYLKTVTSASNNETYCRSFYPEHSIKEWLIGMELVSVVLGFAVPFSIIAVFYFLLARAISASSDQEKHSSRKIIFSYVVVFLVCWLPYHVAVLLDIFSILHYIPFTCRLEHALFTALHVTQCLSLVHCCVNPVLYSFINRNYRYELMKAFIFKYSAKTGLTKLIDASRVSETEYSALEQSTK
Procedure: CXCR7 expressing CHO-S cells were plated at 100 μL/well of cells at 1 million of cells/mL (0.1 million of cells/well) into a 96 well V-bottom plate (Greiner). Plates were centrifuged at 300×g for 3 min at 4° C. and supernatant discarded. […] Primary antibody dilutions were added to cells (100 μL/well) and cell pellets resuspended by pipetting. Plate was incubated for 1 h at 4° C. 100 μL/well of PBS, was added and plates centrifuged at 300×g for 3 min at 4° C. and supernatant discarded. This step was repeated twice. […] Cells were resuspended by pipetting. Plate was incubated for 1 h at 4° C. 100 μL/well of PBS, was added and plates centrifuged at 300×g for 3 min at 4° C. and supernatant discarded. This step was repeated twice. Finally, cells were resuspended in 100 μL/well of PBS and analysed on CytoFLEX (Beckman Coulter).
Binding of antibodies to CXCR7 expressed on CHO-S cells was analysed by gating the main cell population using forward and side scatter (Flow Jo, Flow Jo LLC) to allow for doublet discrimination.

[9] = molecular target: T5, terbium-labelled SNAP-CXCR4 on HEK-293 cells (Cisbio C1TT1CXCR4) (human, UniProt P61072 1-352 (Pan troglodytes entry), terbium label on the SNAP tag); assay: TR-FRET (Tag-lite) competition with AlexaFluor 647-CXCL12 on terbium-labelled SNAP-CXCR4 HEK-293 cells
T5 construct: Bought assay-ready cells; also called CXCR4 expressing cells; not shown: SNAP tag
T5 sequence (P61072 whole entry): as the sequence (P61073 whole entry) above

[10] = molecular target: T2, human CXCR4 (cell-expressed); assay: cell-based or functional assay; remark: listed apart in the source
[11] = molecular target: T2, human CXCR4 (cell-expressed); assay: cell-based or functional assay; remark: listed apart in the source
cynomolgus CXCR4 [12] = molecular target: T3, cynomolgus CXCR4; assay: flow cytometry on CHO-S cells expressing cynomolgus CXCR4
Procedure: (§2) Cynomolgus monkey CXCR4 expressing CHO-S cells were plated at 100 uL/well of cells at 1 million of cells/mL (0.1 million of cells/well) into a 96 well V-bottom plate (Greiner). Plates were centrifuged at 300×g for 3 min at 4° C. and supernatant discarded. […] Primary antibody dilutions were added to cells (50 μL/well) and cell pellets resuspended by pipetting. Plates was incubated for 1 h at 4° C. 100 μL/well of PBS, was added and plates centrifuged at 300×g for 3 min at 4° C. and supernatant discarded. This step was repeated twice. […] Cells were resuspended by pipetting. Plates were incubated for 1 h at 4° C. 100 μL/well PBS, was added and plates centrifuged at 300×g for 3 min at 4° C. and supernatant discarded. This step was repeated twice. Finally, cells were resuspended in 100 μL/well of PBS and analysed on CytoFLEX (Beckman Coulter).
(§3) Binding of antibodies to cynomolgus CXCR4 expressed on CHO-S cells was analysed by gating the main cell population using forward and side scatter (Flow Jo, Flow Jo LLC) to allow for doublet discrimination. […] EC₅₀ values were calculated by transforming the data and fitting a 4-parameter logistic regression curve to each antibody titration.

[13] = molecular target: T2, human CXCR4 (cell-expressed); assay: cell-based or functional assay; remark: listed apart in the source
cynomolgus CXCR4 [14] = molecular target: T3, cynomolgus CXCR4; assay: flow cytometry on CHO-S cells expressing cynomolgus CXCR4, anti-human Alexa Fluor 647 secondary antibody, GeoMean (647 nm)
Procedure: as §2, §3

human CXCR7 [15] = molecular target: T4, human CXCR7; assay: flow cytometry on CHO-S cells expressing human CXCR7, anti-mouse Alexa Fluor 647 secondary antibody, GeoMean (647 nm)

B1: CL-82558 (antibody, human IgG4 S228P, kappa, V domains shown)
VH: QVQLQESGPGLVKPSQTLSLTCTVSGGSISSGGYYWSWIRQVPGKGLEWIGYISYSGNTFYSPSLKSRVTISVDTSENKFSLRLTSVTAADTAVYFCARDRRIPMLRGVKGYYYGLDVWGQGTTVTVSS
VL: DIVMTQSPLSLPVIPGEPASISCRSSQSLLHRNGYKYLDWYLQKPGQSPQLLIYLGSNRASGVPARFSGSGSGTDFTLKISRVEAEDVGVYYCMQALQTPWTFGQGTKVEIKR
notes: Tested in human IgG4-PE format; also called CL-82558 (IgG4-PE format)
- Kd (CXCR4 StaR nanodiscs [1]): 3.9 nM
- koff (CXCR4 StaR nanodiscs [1]): 0.00047 s⁻¹
- kon (CXCR4 StaR nanodiscs [1]): 120000 M⁻¹ s⁻¹
- IC50 of antibody in presence of 30 nM CXCL12, human T-cell transwell chemotaxis [2]: 0.14 not printed (nM assumed)
- Kd (CXCR4 StaR nanodiscs [3]): 1.7 nM
- koff (CXCR4 StaR nanodiscs [3]): 0.00013 s⁻¹
- kon (CXCR4 StaR nanodiscs [3]): 77000 M⁻¹ s⁻¹
- % of max migration at 120 nM Ab, primary naïve T-cell trans-well migration [4]: 6.34%
- % effect (remaining % of CXCL12 response), DMR assay, human T-cells [5]: 4.3%
- IC50, label-free DMR assay, isolated human T-cells, EC80 CXCL12 [5]: 1.72 nM
- % Maximum Inhibition, cAMP HTRF assay, cyno CXCR4 BacMam HEK-293 cells (cynomolgus CXCR4 [6]): 83%
- IC50, cAMP HTRF assay, cyno CXCR4 BacMam HEK-293 cells (cynomolgus CXCR4 [6]): 1.3 nM
- Max Signal (Total Overlap Object Area), internalisation on Ramos cells, live-cell imaging [7]: 23900 µm^2 per image
- binding result (human CXCR7 [8]): no binding (tested: log(M) about -6.9 (about 1.2e-7 M))
- % Max Inhibition [9]: 101%
- IC50 [9]: 0.57 nM
- % Max Inhibition, beta-arrestin reporter assay, Tango CXCR4-bla U2OS cells [10]: 99.5%
- IC50, beta-arrestin reporter assay, Tango CXCR4-bla U2OS cells, 30 nM CXCL12 [10]: 0.07 nM
- IC50 n = 1, Jurkat chemotaxis towards 30 nM CXCL12 (IncuCyte) [11]: 0.72 nM
- IC50 n = 2, Jurkat chemotaxis towards 30 nM CXCL12 (IncuCyte) [11]: 0.94 nM
- IC50 n = 3, Jurkat chemotaxis towards 30 nM CXCL12 (IncuCyte) [11]: 0.71 nM
- Mean IC50, Jurkat chemotaxis towards 30 nM CXCL12 (IncuCyte) [11]: 0.79 nM
- EC50 (cynomolgus CXCR4 [12]): 1.1 nM
- % Max Inhibition, cAMP HTRF assay, CXCR4 BacMam HEK-293 cells [13]: 94%
- IC50, cAMP HTRF assay, CXCR4 BacMam HEK-293 cells, 5.5 nM CXCL12 [13]: 29 nM

B2: CL-148729 (antibody, human IgG4 S228P, lambda, V domains shown)
VH: AVQLVESGGGLVQPGGSLKLSCAASGFTFSGSTMHWVRQASGRGLEWVGRIRSKADSYATAYSASVKGRFTISRDDSKKMAYLQMNSLKTEDMAVYYCTRSGDYWGQGTLVTVSS
VL: QSVLTQPPSVSAAPGQKVTISCSGSSSNIGKNYVAWYQQLPGTAPKLLIYDTNKRPSGIPDRFSGSKSGTSATLDITGLQTGDEADYYCGTWDISLSVGWLFGGGTKVTVLG
notes: Tested in human IgG4-PE format
- % Max Inhibition, beta-arrestin reporter assay, Tango CXCR4-bla U2OS cells [10]: 99.6%
- IC50, beta-arrestin reporter assay, Tango CXCR4-bla U2OS cells, 30 nM CXCL12 [10]: 0.11 nM
- % Max Inhibition, cAMP HTRF assay, CXCR4 BacMam HEK-293 cells [13]: 114%
- IC50, cAMP HTRF assay, CXCR4 BacMam HEK-293 cells, 5.5 nM CXCL12 [13]: 6 nM
- binding result (cynomolgus CXCR4 [14]): no binding (tested: log(M) about -6.9 (about 1.2e-7 M))

B3: Anti-CXCR7 mAb #11G8 (R&D Systems) (antibody, V domains shown)
VH: EVKLVESGGDLVQPGGSLKLSCATSGFTFSDYYMFWVRQTPEKRLEWVAYITNGGDRSYYSDTVTGRFIISRDNAKNTLYLQMSRLKSEDTAMYYCARQGNWAAWFVYWGQGTLVTVSA
VL: DVLMTQTPLSLPVSLGDQASISCRSSHYIVHSDGNTYLEWYLQKPGQSPKLLIYKVSNRFSGVPDRFSGSGSGTDFTLKISRVEAEDLGIYYCFQGSHVPLTFGAGTKLELKR
- EC50 (read off the curve) (human CXCR7 [15]): ~10 nM
